From patent publication US20140170677A1

Assays:
[1] = biological target: human CXCR4 (Chemokine receptor 4) (human) (UniProt P61073); assay: FACS on Hela cells (endogenous CXCR4), antibody at 10 ug/ml
[2] = biological target: human CXCR4 (Chemokine receptor 4) (human) (UniProt P61073); assay: FACS on U937 cells (endogenous CXCR4), antibody at 10 ug/ml
[3] = biological target: human CXCR4 (Chemokine receptor 4) (human) (UniProt P61073); assay: FACS on MDA-MB-231 cells (endogenous CXCR4), antibody at 10 ug/ml

Sequence of UniProt P61073 (P61073 whole entry): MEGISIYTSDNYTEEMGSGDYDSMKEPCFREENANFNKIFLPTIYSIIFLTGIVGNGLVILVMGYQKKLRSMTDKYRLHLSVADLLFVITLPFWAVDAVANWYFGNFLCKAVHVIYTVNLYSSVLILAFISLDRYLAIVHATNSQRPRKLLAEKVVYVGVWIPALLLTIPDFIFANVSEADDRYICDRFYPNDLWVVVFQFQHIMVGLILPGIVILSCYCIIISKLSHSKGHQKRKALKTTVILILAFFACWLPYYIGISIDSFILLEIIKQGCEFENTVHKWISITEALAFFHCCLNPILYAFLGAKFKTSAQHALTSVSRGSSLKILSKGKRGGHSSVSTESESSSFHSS

- MFI [1]: 633 MFI
- MFI [2]: 246 MFI
- MFI [3]: 59 MFI
B1: anti-CXCR4 I-3859 monoclonal antibody (Mab) (antibody, V domains shown)
VH: QVQLKESGPGLVAPSQSLSITCTVSGFSLTDYGVYWVRQPPGKGLEWLGMIWGDGTTDYNSALKSRLSISKDNSKSQVFLKMNTLQTDDTARYYCARGRQFGFDYWGQGTTLTVSS
VL: DIVMSQSPSSLAVSAGEKVTMRCKSSQSLFNSRTRKNYLAWYQQKPGQSPKLLIFWASIRESGVPDRFTGSGSGTDFTLTISSVQAEDLAVYYCKQSYNLRTFGGGTKLEIK
